Drawing on PMC7897479, this text covers binding result and Kd for five molecules.

Series [1] has as its target T1, SpCas9-His (Streptococcus pyogenes, UniProt Q99ZW2 1-1368). In words: EMSA.
The target in series [2] is T1, SpCas9-His. Briefly: SPR.

T1 sequence (Q99ZW2 whole entry): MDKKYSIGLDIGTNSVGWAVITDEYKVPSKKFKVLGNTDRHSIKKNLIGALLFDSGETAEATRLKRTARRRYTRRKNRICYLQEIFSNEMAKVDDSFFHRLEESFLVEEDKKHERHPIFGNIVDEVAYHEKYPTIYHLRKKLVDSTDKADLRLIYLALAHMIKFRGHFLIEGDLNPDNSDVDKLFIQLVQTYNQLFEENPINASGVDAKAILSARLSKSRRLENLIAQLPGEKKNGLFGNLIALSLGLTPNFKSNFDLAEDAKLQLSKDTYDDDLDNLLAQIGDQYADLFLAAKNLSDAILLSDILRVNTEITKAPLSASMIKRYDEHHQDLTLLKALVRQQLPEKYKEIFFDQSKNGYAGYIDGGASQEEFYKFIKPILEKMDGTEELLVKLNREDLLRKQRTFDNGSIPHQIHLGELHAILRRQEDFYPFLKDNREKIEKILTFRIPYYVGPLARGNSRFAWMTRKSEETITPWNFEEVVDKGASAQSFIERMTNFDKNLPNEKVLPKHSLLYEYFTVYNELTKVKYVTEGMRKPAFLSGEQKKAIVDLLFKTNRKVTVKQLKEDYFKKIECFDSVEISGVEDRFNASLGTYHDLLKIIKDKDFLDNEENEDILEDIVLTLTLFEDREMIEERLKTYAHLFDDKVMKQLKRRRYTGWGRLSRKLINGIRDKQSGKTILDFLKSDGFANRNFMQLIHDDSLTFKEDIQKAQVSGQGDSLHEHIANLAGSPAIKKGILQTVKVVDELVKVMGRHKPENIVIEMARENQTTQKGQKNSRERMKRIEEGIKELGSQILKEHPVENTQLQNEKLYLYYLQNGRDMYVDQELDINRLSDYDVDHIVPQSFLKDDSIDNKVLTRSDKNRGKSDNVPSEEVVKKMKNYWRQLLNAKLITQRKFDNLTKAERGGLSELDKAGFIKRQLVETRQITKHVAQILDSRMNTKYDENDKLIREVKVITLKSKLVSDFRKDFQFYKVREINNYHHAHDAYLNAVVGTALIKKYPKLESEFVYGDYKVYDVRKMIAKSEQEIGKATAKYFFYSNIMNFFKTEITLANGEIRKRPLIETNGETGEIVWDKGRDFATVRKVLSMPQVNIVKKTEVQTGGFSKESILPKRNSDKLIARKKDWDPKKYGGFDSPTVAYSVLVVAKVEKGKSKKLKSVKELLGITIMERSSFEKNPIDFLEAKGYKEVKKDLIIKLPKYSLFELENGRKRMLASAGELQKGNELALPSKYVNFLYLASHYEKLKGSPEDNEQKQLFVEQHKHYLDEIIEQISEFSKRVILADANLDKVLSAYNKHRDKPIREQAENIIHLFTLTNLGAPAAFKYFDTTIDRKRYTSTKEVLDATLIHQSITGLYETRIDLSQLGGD

B1: Loop-NC for EMSA (structured_DNA)
DNA: GAGGCTCTCACAGTAATGTGAGAGCCT
For the molecule B1, the binding result in the series with SpCas9-His [1] is given as “no binding”.

B2: SS21 NM2 (structured_DNA)
DNA: GAGGCTCTCACAGCGCGCCTTTCGTTGTGAGAGCCTC
For the molecule B2, the binding result with SpCas9-His [1] is “no binding”.

B3: SA-Ap (streptavidin aptamer) (structured_DNA)
DNA: GGTCCTCACACCGCTGTGTGCCGCAACACTGTGAGGACC
Regarding B3, in the series with SpCas9-His [1], the binding result is reported as “no binding”.

B4: Loop-NC for Biacore (structured_DNA)
DNA: GAGGCTCTCACAGTAATGTGAGAGCCT
Turning to B4, the binding result with SpCas9-His [2] was “no binding”.

B5: S21 for Biacore (structured_DNA)
DNA: GAGGCTCTCACATCGCGCCTTTCCCCAGCTTTCGGTGTGAGAGCCTC
In turn, B5 returned an equilibrium dissociation constant (Kd) in the series with SpCas9-His [2] of 0.63 nM.
